Assay results as given in the supplement of paper PMC10065799, “High-throughput profiling of sequence recognition by tyrosine kinases and SH2 domains using bacterial peptide display” (eLife, 2023).

Columns and labels:
AncSZ = test: phosphorylation enrichment, bacterial display (enrichment ratio); higher = better substrate or ligand; peptides without Tyr show the background
EPHB1 = EPHB1 (UniProt P54762); test: as above
EPHB2 = EPHB2 (UniProt P29323); test: as above
FGFR1 = FGFR1 (UniProt P11362); test: as above
FGFR3 = FGFR3 (UniProt P22607); test: as above
Fer (mouse) = test: as above
Fes = Fes (UniProt P07332); test: as above
Fyn = Fyn (UniProt P06241); test: as above
Hck = Hck (UniProt P08631); test: as above
Jak2 = Jak2 (UniProt O60674); test: as above
MERTK = MERTK (UniProt Q12866); test: as above
c-Abl (mouse) = test: as above
c-Src = test: as above
Grb2 SH2 = Grb2 SH2 (UniProt P62993); test: SH2 binding enrichment of the phosphorylated peptide, bacterial display (enrichment ratio); higher = better substrate or ligand; peptides without Tyr show the background
SHP2-C SH2 = test: as above
c-Src SH2 = test: as above
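Wherever SH2 binding enrichment of the phosphorylated peptide, bacterial display is given: peptide library displayed on the E. coli surface as eCPX fusions, selected cells deep-sequenced, score is each peptide's frequency after selection divided by its frequency in the input.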
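Wherever phosphorylation enrichment, bacterial display is given: 11-residue human phosphosite peptides and single-mutation variants displayed on the E. coli surface, counted by deep sequencing, each peptide's frequency after selection divided by its frequency in the unselected input library; frequency after pTyr selection over input frequency; kinase dosed for 20-30% of maximal phosphorylation in three min.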

Sequence of Hck (P08631 whole entry, looked up): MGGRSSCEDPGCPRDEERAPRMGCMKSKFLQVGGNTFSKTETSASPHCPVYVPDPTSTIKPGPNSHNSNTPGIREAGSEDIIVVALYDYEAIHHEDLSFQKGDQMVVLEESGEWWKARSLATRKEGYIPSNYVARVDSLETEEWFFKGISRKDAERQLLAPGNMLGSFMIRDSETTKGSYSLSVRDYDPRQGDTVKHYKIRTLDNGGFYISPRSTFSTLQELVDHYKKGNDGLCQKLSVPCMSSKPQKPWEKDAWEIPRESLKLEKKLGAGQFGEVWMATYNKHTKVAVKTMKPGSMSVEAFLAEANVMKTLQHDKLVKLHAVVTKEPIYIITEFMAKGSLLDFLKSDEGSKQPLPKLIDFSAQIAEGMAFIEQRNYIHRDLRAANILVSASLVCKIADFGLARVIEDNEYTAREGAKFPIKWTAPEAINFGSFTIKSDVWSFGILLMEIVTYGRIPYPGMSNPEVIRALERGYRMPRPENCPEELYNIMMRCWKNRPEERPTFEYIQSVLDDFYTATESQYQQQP
Sequence of EPHB2 (P29323 whole entry, looked up): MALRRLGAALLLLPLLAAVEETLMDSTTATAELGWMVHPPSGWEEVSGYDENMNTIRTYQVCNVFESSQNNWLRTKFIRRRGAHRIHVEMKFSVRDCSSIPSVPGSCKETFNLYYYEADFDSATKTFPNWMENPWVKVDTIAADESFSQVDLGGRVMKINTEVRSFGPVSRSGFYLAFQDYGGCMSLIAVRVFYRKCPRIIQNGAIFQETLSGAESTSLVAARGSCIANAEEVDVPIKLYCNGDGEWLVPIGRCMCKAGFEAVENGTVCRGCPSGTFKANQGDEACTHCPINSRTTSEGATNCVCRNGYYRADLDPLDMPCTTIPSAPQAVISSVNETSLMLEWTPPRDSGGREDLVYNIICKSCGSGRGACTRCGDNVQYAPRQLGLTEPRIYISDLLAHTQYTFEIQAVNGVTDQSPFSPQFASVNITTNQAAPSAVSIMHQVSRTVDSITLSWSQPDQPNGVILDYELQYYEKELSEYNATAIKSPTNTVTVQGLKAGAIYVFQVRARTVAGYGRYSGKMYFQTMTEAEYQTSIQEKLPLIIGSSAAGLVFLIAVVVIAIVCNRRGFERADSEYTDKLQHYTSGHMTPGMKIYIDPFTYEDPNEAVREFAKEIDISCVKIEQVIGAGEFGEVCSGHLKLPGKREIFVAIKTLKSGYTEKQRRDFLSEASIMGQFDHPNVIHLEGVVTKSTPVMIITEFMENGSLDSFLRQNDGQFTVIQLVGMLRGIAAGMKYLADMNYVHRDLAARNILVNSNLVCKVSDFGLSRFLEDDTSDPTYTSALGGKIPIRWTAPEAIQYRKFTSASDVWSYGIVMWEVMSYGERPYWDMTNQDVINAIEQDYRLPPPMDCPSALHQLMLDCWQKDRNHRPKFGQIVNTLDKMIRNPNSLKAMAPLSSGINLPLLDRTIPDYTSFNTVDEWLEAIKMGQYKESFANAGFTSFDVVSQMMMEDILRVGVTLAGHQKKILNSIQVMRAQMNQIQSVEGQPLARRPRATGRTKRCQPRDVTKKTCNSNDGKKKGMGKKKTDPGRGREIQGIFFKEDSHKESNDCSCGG
Sequence of Grb2 SH2 (P62993 whole entry, looked up): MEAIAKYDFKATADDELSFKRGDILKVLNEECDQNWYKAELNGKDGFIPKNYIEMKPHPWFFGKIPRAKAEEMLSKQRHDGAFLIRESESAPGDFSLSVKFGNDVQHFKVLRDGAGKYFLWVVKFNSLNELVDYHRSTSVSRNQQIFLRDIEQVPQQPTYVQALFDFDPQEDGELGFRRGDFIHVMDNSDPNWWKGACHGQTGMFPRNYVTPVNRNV
Sequence of Fes (P07332 whole entry, looked up): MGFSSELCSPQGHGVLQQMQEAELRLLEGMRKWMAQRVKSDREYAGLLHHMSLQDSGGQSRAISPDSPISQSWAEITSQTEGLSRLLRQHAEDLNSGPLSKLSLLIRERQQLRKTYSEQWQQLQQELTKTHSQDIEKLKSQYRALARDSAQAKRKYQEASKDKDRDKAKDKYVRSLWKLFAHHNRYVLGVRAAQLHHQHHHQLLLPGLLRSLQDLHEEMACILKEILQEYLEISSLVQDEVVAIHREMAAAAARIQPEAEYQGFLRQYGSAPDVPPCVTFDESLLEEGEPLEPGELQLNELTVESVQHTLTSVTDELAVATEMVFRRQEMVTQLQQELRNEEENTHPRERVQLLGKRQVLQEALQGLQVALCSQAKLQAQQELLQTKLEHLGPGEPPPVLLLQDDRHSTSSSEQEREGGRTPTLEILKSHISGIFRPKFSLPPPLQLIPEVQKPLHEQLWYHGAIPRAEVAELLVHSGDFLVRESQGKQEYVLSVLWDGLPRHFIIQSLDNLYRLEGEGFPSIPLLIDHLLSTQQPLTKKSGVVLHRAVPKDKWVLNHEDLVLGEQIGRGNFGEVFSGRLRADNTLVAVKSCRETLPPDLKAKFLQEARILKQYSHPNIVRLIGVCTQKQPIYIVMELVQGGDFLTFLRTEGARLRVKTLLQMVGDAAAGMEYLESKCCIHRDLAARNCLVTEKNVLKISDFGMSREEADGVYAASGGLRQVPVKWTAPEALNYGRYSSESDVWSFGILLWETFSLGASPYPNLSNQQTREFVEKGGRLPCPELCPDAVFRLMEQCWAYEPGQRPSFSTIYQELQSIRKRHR
Sequence of Fyn (P06241 whole entry, looked up): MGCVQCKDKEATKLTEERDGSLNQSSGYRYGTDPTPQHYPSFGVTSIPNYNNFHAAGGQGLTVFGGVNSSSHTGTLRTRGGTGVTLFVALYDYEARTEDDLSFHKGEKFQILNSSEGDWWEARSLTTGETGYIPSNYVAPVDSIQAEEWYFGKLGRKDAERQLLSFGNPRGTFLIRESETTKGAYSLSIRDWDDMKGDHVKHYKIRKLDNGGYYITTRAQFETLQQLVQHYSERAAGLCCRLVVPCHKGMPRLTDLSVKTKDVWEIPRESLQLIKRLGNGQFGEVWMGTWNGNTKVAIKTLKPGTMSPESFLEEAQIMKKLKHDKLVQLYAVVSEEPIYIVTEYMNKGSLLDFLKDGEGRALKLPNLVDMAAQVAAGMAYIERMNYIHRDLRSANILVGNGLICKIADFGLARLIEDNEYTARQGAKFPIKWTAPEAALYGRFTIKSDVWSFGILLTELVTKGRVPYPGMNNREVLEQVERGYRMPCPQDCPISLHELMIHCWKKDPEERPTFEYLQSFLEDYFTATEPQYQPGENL
Sequence of FGFR1 (P11362 whole entry, looked up): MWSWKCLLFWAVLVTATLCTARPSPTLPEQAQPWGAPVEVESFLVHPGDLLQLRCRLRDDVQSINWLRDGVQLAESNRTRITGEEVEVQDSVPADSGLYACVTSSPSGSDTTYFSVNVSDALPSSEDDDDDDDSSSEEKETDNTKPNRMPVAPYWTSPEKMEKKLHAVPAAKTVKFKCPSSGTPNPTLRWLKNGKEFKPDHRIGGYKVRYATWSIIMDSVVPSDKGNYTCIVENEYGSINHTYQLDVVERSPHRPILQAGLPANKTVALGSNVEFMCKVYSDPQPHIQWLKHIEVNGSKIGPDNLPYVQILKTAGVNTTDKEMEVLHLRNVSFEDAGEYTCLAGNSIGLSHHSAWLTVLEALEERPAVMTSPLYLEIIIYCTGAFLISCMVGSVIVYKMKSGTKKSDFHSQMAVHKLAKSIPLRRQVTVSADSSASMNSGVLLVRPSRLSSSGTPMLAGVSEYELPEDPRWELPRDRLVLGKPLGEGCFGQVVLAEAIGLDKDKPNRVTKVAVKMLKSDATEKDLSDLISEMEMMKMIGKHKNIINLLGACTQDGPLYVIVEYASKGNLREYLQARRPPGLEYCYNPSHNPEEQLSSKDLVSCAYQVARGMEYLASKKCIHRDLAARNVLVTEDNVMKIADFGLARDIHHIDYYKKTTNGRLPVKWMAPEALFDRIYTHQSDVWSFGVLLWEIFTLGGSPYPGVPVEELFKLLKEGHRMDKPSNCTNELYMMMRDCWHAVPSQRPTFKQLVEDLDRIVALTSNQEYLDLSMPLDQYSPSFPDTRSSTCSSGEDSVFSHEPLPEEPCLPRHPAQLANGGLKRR
Sequence of FGFR3 (P22607 whole entry, looked up): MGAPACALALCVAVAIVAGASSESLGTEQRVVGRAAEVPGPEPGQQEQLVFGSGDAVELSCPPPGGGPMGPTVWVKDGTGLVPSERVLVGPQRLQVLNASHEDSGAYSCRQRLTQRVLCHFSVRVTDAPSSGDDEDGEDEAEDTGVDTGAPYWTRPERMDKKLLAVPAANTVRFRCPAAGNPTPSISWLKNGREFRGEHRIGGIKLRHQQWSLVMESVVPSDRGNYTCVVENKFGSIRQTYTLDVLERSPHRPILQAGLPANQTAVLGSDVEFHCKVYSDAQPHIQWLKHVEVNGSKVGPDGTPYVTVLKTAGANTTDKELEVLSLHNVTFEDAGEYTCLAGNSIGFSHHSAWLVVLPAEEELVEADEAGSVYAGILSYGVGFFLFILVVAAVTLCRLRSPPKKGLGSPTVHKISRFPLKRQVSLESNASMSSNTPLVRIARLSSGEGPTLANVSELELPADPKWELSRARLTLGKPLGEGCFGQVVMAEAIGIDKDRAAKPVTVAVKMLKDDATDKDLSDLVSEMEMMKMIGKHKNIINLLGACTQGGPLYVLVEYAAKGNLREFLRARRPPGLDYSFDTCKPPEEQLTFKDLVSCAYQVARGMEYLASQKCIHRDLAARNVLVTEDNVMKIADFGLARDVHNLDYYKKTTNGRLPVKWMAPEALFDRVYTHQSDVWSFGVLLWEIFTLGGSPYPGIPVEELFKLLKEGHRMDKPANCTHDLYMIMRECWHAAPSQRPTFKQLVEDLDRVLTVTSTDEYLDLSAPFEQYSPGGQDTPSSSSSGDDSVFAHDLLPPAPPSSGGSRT

Sequence	phosphorylation enrichment (AncSZ)	phosphorylation enrichment (EPHB1)	phosphorylation enrichment (EPHB2)	phosphorylation enrichment (FGFR1)	phosphorylation enrichment (FGFR3)	phosphorylation enrichment (Fer (mouse))	phosphorylation enrichment (Fes)	phosphorylation enrichment (Fyn)	phosphorylation enrichment (Hck)	phosphorylation enrichment (Jak2)	phosphorylation enrichment (MERTK)	phosphorylation enrichment (c-Abl (mouse))	phosphorylation enrichment (c-Src)	SH2 binding enrichment (Grb2 SH2)	SH2 binding enrichment (SHP2-C SH2)	SH2 binding enrichment (c-Src SH2)
NVGGKYSYLKV [GRM3_Y478]	0.625	0.415	0.39	0.449	0.476	0.446	0.65	0.358	0.515	0.635	0.448	0.524	0.351	1.08	1.43	2.27
RSFLSYYTSHV [NEFL_Y442_P440L]	0.996	0.998	0.761	0.575	0.834	0.491	0.876	0.692	0.421	1.71	1.44	0.606	0.561	1.12	1.63	1.66
YRAPGYREVVI [TNS2_Y673]	0.587	0.445	0.43	0.52	0.443	0.432	0.634	0.474	0.439	0.509	0.403	2.11	0.419	1.11	0.889	0.633
KNNDGYTDFAE [MCFD2_Y135_I136T_YF]	0.999	0.578	0.594	0.559	0.732	0.529	1.07	0.522	0.529	0.882	0.42	0.731	0.449	0.869	0.8	5.75
LEIETYPRLLD [KRT12_Y429_R430P]	1.3	0.802	0.953	0.787	1.06	0.646	1.87	0.599	0.41	1.85	0.461	1.1	0.772	0.826	0.65	0.498
FETSHYLASPD [CTNND2_Y1217_P1218L_YF]	0.791	0.878	0.635	0.568	0.752	0.502	0.824	0.557	0.513	0.73	0.664	0.658	0.523	0.923	0.904	0.473
HNQDGYSFLSR [LDLR_Y845_P848L_YF]	0.867	0.837	1	0.765	0.657	0.427	0.795	0.654	0.841	1.25	0.914	0.635	0.435	0.784	2.83	6.05
VFPIDYYFPPQ [AR_Y552_L548F]	5.64	3.22	3.65	13.8	12.9	0.536	0.914	0.816	0.851	6.13	2.24	0.922	1.34	1.24	1.08	1.04
LHSDHYSPSGR [TMPRSS12_Y23_Y19H]	1.79	0.431	0.672	0.485	0.871	0.746	0.585	0.778	0.851	0.414	0.617	0.569	0.503	0.995	0.557	0.637
RMETAYGPSVT [MXRA5_Y2717_E2716A]	0.635	0.413	0.46	0.448	0.529	0.617	0.718	0.467	0.63	0.661	0.444	0.511	0.646	0.76	0.904	0.405
TSFSGYRCHRH [NKAPL_Y94_Y96C_YF]	0.703	0.576	0.486	0.552	0.45	0.464	0.727	0.419	0.469	0.718	0.469	0.562	0.414	1.01	0.901	0.661
RALRHYYKLNI [ETV6_Y401]	1.07	1.29	0.415	1.46	1.03	0.402	0.606	0.685	0.95	0.504	0.763	0.371	0.201	2.09	1.17	1.47
ASYGPYTRVQS [FOXL2_Y258]	0.551	0.415	0.583	0.422	0.427	0.438	0.623	0.673	0.793	0.539	0.376	0.464	0.559	0.86	6.64	2.89
FQKDVYNIPPS [NEDD9_Y177_D178N_YF]	0.613	0.437	0.411	0.47	0.468	0.371	0.572	2.54	1.31	1.75	0.883	0.525	2.21	1	0.913	0.479
MGSFNYLGFAR [SPTLC2_Y178_YF]	0.63	0.942	0.493	0.504	0.603	0.431	0.661	0.439	0.485	1.15	0.443	0.521	0.535	1.05	1.58	0.59
NVTRKYSRQIL [MAP3K2_Y463_T464S]	0.425	0.356	0.317	0.363	0.352	0.402	0.446	0.491	0.361	0.417	0.344	0.399	0.403	1.06	0.607	0.508
RRFLFYFSFLL [PTEN_Y177_V175L_YF]	0.691	0.493	0.608	0.472	0.508	0.398	0.794	0.567	0.541	0.727	0.53	0.613	0.683	0.821	0.478	0.519

Sequence	phosphorylation enrichment (AncSZ)	phosphorylation enrichment (EPHB1)	phosphorylation enrichment (EPHB2)	phosphorylation enrichment (FGFR1)	phosphorylation enrichment (FGFR3)	phosphorylation enrichment (Fer (mouse))	phosphorylation enrichment (Fes)	phosphorylation enrichment (Fyn)	phosphorylation enrichment (Hck)	phosphorylation enrichment (Jak2)	phosphorylation enrichment (MERTK)	phosphorylation enrichment (c-Abl (mouse))	phosphorylation enrichment (c-Src)	SH2 binding enrichment (Grb2 SH2)	SH2 binding enrichment (SHP2-C SH2)	SH2 binding enrichment (c-Src SH2)
DPEATYTTSGG [EPHA2_Y772]	1.22	0.533	0.57	0.502	0.754	0.502	1.19	0.523	0.591	1.09	0.418	0.943	0.789	0.671	0.528	0.435
SGSWSYNTSTE [SELE_Y24_A21S]	0.925	0.56	0.586	0.527	0.768	0.393	1.07	0.5	0.536	0.968	0.503	0.787	0.503	0.826	0.565	0.55
VEKGSYSALRA [ABCC2_Y845_L849R]	0.43	0.348	0.296	0.356	0.396	0.338	0.551	0.34	0.351	0.551	0.325	0.438	0.314	0.823	1.04	0.555
DAKAIYDFTDT [PDK1_Y136]	1.3	1.43	1.85	0.604	0.665	5.43	1.15	7.96	3.18	0.994	5.88	1.03	5.87	0.896	0.6	0.604
PRNLIYFGEHP [TRPV6_Y201_C197R]	1.23	0.631	0.925	0.423	0.912	0.619	1.51	0.738	0.932	1.57	0.448	0.92	1.08	0.531	0.598	0.401
DISEPYKVYRI [IRF8_Y107]	0.911	0.537	0.517	0.481	0.549	0.497	0.88	0.445	1.34	0.78	0.487	0.62	0.622	0.901	0.795	0.479
PTEAQYRFIFM [PTPN11_Y511_Q506P_YF]	1.6	0.876	0.767	1.9	1.21	1.06	1.81	0.939	1.07	1.44	0.702	1.32	0.477	0.585	0.593	0.317
DRIVNYSRASI [ATP7A_Y1459]	0.538	0.432	0.4	0.423	0.426	0.41	0.589	0.374	0.405	0.48	0.383	0.585	0.37	0.768	0.88	0.498
FASTGYVIAIQ [GRIN2B_Y762_G763V]	1.32	0.618	0.587	0.484	0.724	0.543	0.983	0.474	0.418	0.941	0.393	0.784	0.4	0.94	1.07	0.742
NSNSDYVDILP [SH2D1B_Y127_V130I]	1.85	3.31	3.01	3.99	3.11	0.682	1.22	0.514	0.623	1.09	0.6	1	0.573	0.788	0.503	0.571
PESTLYRKFTT [NTRK1_Y701_I699T]	1.01	0.433	0.275	0.646	0.644	0.448	0.83	0.347	0.608	0.812	0.399	1.12	0.467	0.879	0.538	0.444
DEDEEYEYMNR [ERBB3_Y1197]	1.38	0.587	0.712	0.511	0.62	0.556	1.23	0.523	0.567	1.19	0.487	0.668	0.54	1.02	0.926	0.634
FDDDDYDTDFV [BLM_Y296]	1.26	0.662	0.549	0.586	0.78	0.531	1.14	0.563	0.538	0.958	0.509	0.767	0.494	0.803	0.702	0.555
DVELLYPVKEK [EPHX1_Y283]	0.968	0.445	0.513	0.394	0.558	0.432	1.05	0.404	0.422	0.971	0.36	0.648	0.452	0.73	0.487	0.42
APQYTYTQGGQ [FLNA_Y1763_A1764T]														1.54	0.799	1.84
LPEVSYVKAID [GLRA1_Y307_K304E]	0.207	0.095			0.1		0.205	0.28	0.203	0.44	0.07	0.132	0.126	0.862	0.783	0.437
